In patent publication US20160009793A1 (BIOARCTIC NEUROSCIENCE, published 2016):

Assays:
Aβ1-42 protofibrils [1] = target: T1, Aβ1-42 protofibrils (UniProt P05067 672-713); experiment: inhibition ELISA: antibody pre-incubated in solution with Aβ protofibrils, then transferred to Aβ coated plates; BAN2401 is the reference
T1 construct: domain: Aβ1-42; Aβ numbering is not APP numbering; also called Aβ protofibrils; Aβ-protofibrils
Method: (§1) The binding characteristics towards Aβ protofibrils and Aβ monomers of the antibodies of the invention compared to BAN2401 were analyzed using an inhibition ELISA in which antibodies were pre-incubated in solution with Aβ protofibrils or Aβ monomers and then transferred to Aβ coated ELISA plates, as described in Tucker et. al. J Alzheimers Dis. 2015; 43(2):575-88. doi: 10.3233/JAD-140741. PubMed PMID: 25096615, and references cited therein.

Aβ1-40 monomers = target: T2, Aβ1-40 monomers (UniProt P05067 672-711); experiment: inhibition ELISA: antibody pre-incubated in solution with Aβ monomers, then transferred to Aβ coated plates
T2 construct: domain: Aβ1-40; Aβ numbering is not APP numbering; also called Aβ monomers; Aβ monomer
T2 sequence (P05067 672-711 limits assumed): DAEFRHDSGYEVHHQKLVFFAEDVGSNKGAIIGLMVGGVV
Method: as §1

Aβ1-42 protofibrils [2] = target: T1, Aβ1-42 protofibrils; experiment: inhibition ELISA: antibody pre-incubated in solution with Aβ protofibrils, then transferred to Aβ coated plates
Method: as §1

T1 sequence (P05067 672-713 limits assumed): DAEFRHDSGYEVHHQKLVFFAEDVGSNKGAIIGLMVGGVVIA

Row | Binder | binding result (Aβ1-42 protofibrils [1]) | binding result (Aβ1-40 monomers) | binding result (Aβ1-42 protofibrils [2])
1 | BAN2401 (antibody, V domains shown, also called humanized version of mAb158) VH: EVQLVESGGGLVQPGGSLRLSCSASGFTFSSFGMHWVRQAPGKGLEWVAYISSGSSTIYYGDTVKGRFTISRDNAKNSLFLQMSSLRAEDTAVYYCAREGGYYYGRSYYTMDYWGQGTTVTVSS VL: DVVMTQSPLSLPVTPGAPASISCRSSQSIVHSNGNTYLEWYLQKPGQSPKLLIYKVSNRFSGVPDRFSGSGSGTDFTLRISRVEAEDVGIYYCFQGSHVPPTFGPGTKLEIK | binds |  | 
2 | A17D/R79T (antibody, human IgG1, kappa, V domains shown) VH: EVQLVESGGGLVQPGGSLRLSCSASGFTFSSFGMHWVRQAPGKGLEWVAYISSGSSTIYYGDTVKGRFTISRDNAKNSLFLQMSSLRAEDTAVYYCAREGGYYYGRSYYTMDYWGQGTTVTVSS VL: DVVMTQSPLSLPVTPGDPASISCRSSQSIVHSNGNTYLEWYLQKPGQSPKLLIYKVSNRFSGVPDRFSGSGSGTDFTLTISRVEAEDVGIYYCFQGSHVPPTFGPGTKLEIKR |  | binds | binds
3 | A17D (antibody, human IgG1, kappa, V domains shown) VH: EVQLVESGGGLVQPGGSLRLSCSASGFTFSSFGMHWVRQAPGKGLEWVAYISSGSSTIYYGDTVKGRFTISRDNAKNSLFLQMSSLRAEDTAVYYCAREGGYYYGRSYYTMDYWGQGTTVTVSS VL: DVVMTQSPLSLPVTPGDPASISCRSSQSIVHSNGNTYLEWYLQKPGQSPKLLIYKVSNRFSGVPDRFSGSGSGTDFTLRISRVEAEDVGIYYCFQGSHVPPTFGPGTKLEIKR |  | binds | binds
4 | A17D/R79T/R82S (antibody, human IgG1, kappa, V domains shown) VH: EVQLVESGGGLVQPGGSLRLSCSASGFTFSSFGMHWVRQAPGKGLEWVAYISSGSSTIYYGDTVKGRFTISRDNAKNSLFLQMSSLRAEDTAVYYCAREGGYYYGRSYYTMDYWGQGTTVTVSS VL: DVVMTQSPLSLPVTPGDPASISCRSSQSIVHSNGNTYLEWYLQKPGQSPKLLIYKVSNRFSGVPDRFSGSGSGTDFTLTISSVEAEDVGIYYCFQGSHVPPTFGPGTKLEIKR |  | binds | binds
5 | A17D/R79T_DI 1 (antibody, human IgG1, kappa, also called deimmunized variant 1 of A17D/R79T) heavy: not shown light: DVVMTQSPLSLPVTPGDPASVSCRSSQSIVHSNGNTYLEWYLQKPGQSPKLLIYKVSNRFSGVPDRFSGSGSGTDFTLTIQRVEAEDVGIYYCFQGSHVPPTFGPGTKLEIKRTVAAPSVFIFPPSDEQLKSGTASVVCLLNNFYPREAKVQWKVDNALQSGNSQESVTEQDSKDSTYSLSSTLTLSKADYEKHKVYACEVTHQGLSSPVTKSFNRGEC |  | binds | binds
6 | A17D/R79T_DI 2 (antibody, human IgG1, kappa, also called deimmunized variant 2 of A17D/R79T) heavy: not shown light: DVVMTQSPLSLPVTPGDPASVSCRSSQSIVHSNGNTYLEWYLQKPGQSPKLLIYKVSNRFSGVPDRFSGSGSGTDFTLTISRVDAEDVGIYYCFQGSHVPPTFGPGTKLEIKRTVAAPSVFIFPPSDEQLKSGTASVVCLLNNFYPREAKVQWKVDNALQSGNSQESVTEQDSKDSTYSLSSTLTLSKADYEKHKVYACEVTHQGLSSPVTKSFNRGEC |  | binds | binds
7 | A17D/R79T_DI 3 (antibody, human IgG1, kappa, also called deimmunized variant 3 of A17D/R79T) heavy: not shown light: DVVMTQSPLSLPATPGDPASISCRSSQSIVHSNGNTYLEWYLQKPGQSPKLLIYKVSNRFSGVPDRFSGSGSGTDFTLTIQRVEAEDVGIYYCFQGSHVPPTFGPGTKLEIKRTVAAPSVFIFPPSDEQLKSGTASVVCLLNNFYPREAKVQWKVDNALQSGNSQESVTEQDSKDSTYSLSSTLTLSKADYEKHKVYACEVTHQGLSSPVTKSFNRGEC |  | binds | binds
8 | A17D/R79T_DI 4 (antibody, human IgG1, kappa, also called deimmunized variant 4 of A17D/R79T) heavy: not shown light: DVVMTQSPLSLPATPGDPASISCRSSQSIVHSNGNTYLEWYLQKPGQSPKLLIYKVSNRFSGVPDRFSGSGSGTDFTLTISRVDAEDVGIYYCFQGSHVPPTFGPGTKLEIKRTVAAPSVFIFPPSDEQLKSGTASVVCLLNNFYPREAKVQWKVDNALQSGNSQESVTEQDSKDSTYSLSSTLTLSKADYEKHKVYACEVTHQGLSSPVTKSFNRGEC |  | binds | binds
9 | A17D/R79T_DI 5 (antibody, human IgG1, kappa, also called deimmunized variant 5 of A17D/R79T) heavy: not shown light: DVVMTQSPLSLPVTPGDPASVSCRSSQSIVHSNGNTYLEWYLQKPGQSPKLLIYKVSNRFSGVPDRFSGSGSGTDFTLTIQRVEAEDVGIYYCFQGSHVPPTFGPGTKLEIKRTVAAPSVFIFPPSDEQLKSGTASVVCLLNNFYPREAKVQWKVDNALQSGNSQESVTEQDSKDSTYSLSSTLTLSKADYEKHKVYACEVTHQGLSSPVTKSFNRGEC |  | binds | binds
10 | A17D/R79T_DI 6 (antibody, human IgG1, kappa, also called deimmunized variant 6 of A17D/R79T) heavy: not shown light: DVVMTQSPLSLPVTPGDPASVSCRSSQSIVHSNGNTYLEWYLQKPGQSPKLLIYKVSNRFSGVPDRFSGSGSGTDFTLTISRVDAEDVGIYYCFQGSHVPPTFGPGTKLEIKRTVAAPSVFIFPPSDEQLKSGTASVVCLLNNFYPREAKVQWKVDNALQSGNSQESVTEQDSKDSTYSLSSTLTLSKADYEKHKVYACEVTHQGLSSPVTKSFNRGEC |  | binds | binds
11 | A17D/R79T_DI 7 (antibody, human IgG1, kappa, also called deimmunized variant 7 of A17D/R79T) heavy: not shown light: DVVMTQSPLSLPATPGDPASISCRSSQSIVHSNGNTYLEWYLQKPGQSPKLLIYKVSNRFSGVPDRFSGSGSGTDFTLTIQRVEAEDVGIYYCFQGSHVPPTFGPGTKLEIKRTVAAPSVFIFPPSDEQLKSGTASVVCLLNNFYPREAKVQWKVDNALQSGNSQESVTEQDSKDSTYSLSSTLTLSKADYEKHKVYACEVTHQGLSSPVTKSFNRGEC |  | binds | binds
12 | A17D/R79T_DI 8 (antibody, human IgG1, kappa, also called deimmunized variant 8 of A17D/R79T) heavy: not shown light: DVVMTQSPLSLPATPGDPASISCRSSQSIVHSNGNTYLEWYLQKPGQSPKLLIYKVSNRFSGVPDRFSGSGSGTDFTLTISRVDAEDVGIYYCFQGSHVPPTFGPGTKLEIKRTVAAPSVFIFPPSDEQLKSGTASVVCLLNNFYPREAKVQWKVDNALQSGNSQESVTEQDSKDSTYSLSSTLTLSKADYEKHKVYACEVTHQGLSSPVTKSFNRGEC |  | binds | binds
13 | A17D/R82S (antibody, human IgG1, kappa, V domains shown) VH: EVQLVESGGGLVQPGGSLRLSCSASGFTFSSFGMHWVRQAPGKGLEWVAYISSGSSTIYYGDTVKGRFTISRDNAKNSLFLQMSSLRAEDTAVYYCAREGGYYYGRSYYTMDYWGQGTTVTVSS VL: DVVMTQSPLSLPVTPGDPASISCRSSQSIVHSNGNTYLEWYLQKPGQSPKLLIYKVSNRFSGVPDRFSGSGSGTDFTLRISSVEAEDVGIYYCFQGSHVPPTFGPGTKLEIKR |  | binds | binds
